Measurements as given in US20240336649A1 (MIT, published 2024).

Tests used:
[1] = target: the molecule itself; test: non-covalent homodimer inferred from EMSA with E-box DNA (Omomyc+Omomyc)
Text: (§1) The three synthetic analogs 10, 11, and 12 can form non-covalent dimers and bind to the target E-box DNA (5′-[…]-3′). […] However, it is not possible to determine which dimeric species form in a solution containing two different monomers. For instance, upon mixing Max (11) and Omomyc (12), three different dimers (Max/Max, Omomyc/Omomyc and Max/Omomyc) can form and potentially bind to DNA (FIG. 18). To assess the activity of these protein complexes in a reliable manner, access to well-defined covalent protein dimers is critical.

[2] = target: the molecule itself; test: EMSA with a 22 bp double-stranded E-box DNA probe. This is an indirect sign: the gel shows DNA binding, and the filing reads the missing shift as missing homodimerisation.
Text: as §1

Row | Protein | binding result [1] | binding result [2]
1 | Omomyc analog 12 (synthetic Omomyc monomer with a C-terminal cysteine) (other, Artificial mini-protein; the structure of 12 is in a drawing; also called Omomyc 12; Omomyc (12)) MATEENVKRRTHNVLERQRRNELKRSFFALRDQIPELENNEKAPKVVILKKATAYILSVQAETQKLISEIDLLRKQNEQLKHKLEQLRNSC | binds | –
2 | Myc analog 10 (synthetic Myc monomer with a C-terminal cysteine) (other, also called Myc 10) NVKRRTHNVLERQRRNELKRSFFALRDQIPELENNEKAPKVVILKKATAYILSVQAEEQKLISEEDLLRKRREQLKHKLEQLGGC | – | no binding
